From patent US20220348674A1 come the findings set out here.

The term EC50 denotes the concentration giving half of the maximal effect. A high value points to a need for much substance.

The target of assay [1] is CD40 on Ramos-Blue cells (human).
Assay [2] deals with cell surface human CD40 on HEK-CD40 cells (human) (UniProt P25942). The assay can be described thus: flow cytometry on HEK-CD40 cells; mAb at 5 ug/ml. (Flow cytometry measures light scatter and fluorescence of single cells or particles in a stream.)
For assay [3] the target is unchanged. Description: flow cytometry on HEK-CD40 cells; mAb at 0.78 ug/ml (so in the source).
Assay [4] shares this target. Description: flow cytometry on HEK-CD40 cells; mAb at 0.02 ug/ml.
Assay [5] has the same target. The assay can be described thus: flow cytometry on HEK-CD40 cells; mAb at 0.06 ug/ml.
Assay [6] shares this target. Description: flow cytometry on HEK-CD40 cells; mAb at 1.7 ug/ml.
The target is the same in assay [7]. Description: flow cytometry on HEK-CD40 cells; mAb at 0.56 ug/ml.
The target is the same in assay [8]. Description: flow cytometry on HEK-CD40 cells; mAb at 12 ug/ml.
The target is the same in assay [9]. Description: flow cytometry, titration on HEK-CD40 cells, CD40 MFI, anti-human IgG secondary antibody.
Assay [10] has the same target. Description: flow cytometry on HEK-CD40 cells; mAb at 0.007 ug/ml.

Chain of CP-870,893, IgG2 isotype fully human anti-CD40 mAb (antibody) (VH): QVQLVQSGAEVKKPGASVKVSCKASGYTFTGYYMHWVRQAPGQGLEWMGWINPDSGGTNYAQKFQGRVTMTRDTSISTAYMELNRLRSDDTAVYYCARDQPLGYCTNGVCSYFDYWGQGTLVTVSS
Chain of CP-870,893, IgG2 isotype fully human anti-CD40 mAb (antibody) (VL): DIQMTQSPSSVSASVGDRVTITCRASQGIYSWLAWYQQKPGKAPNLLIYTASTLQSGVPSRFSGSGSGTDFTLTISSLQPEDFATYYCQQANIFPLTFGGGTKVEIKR
Chain of cell surface human CD40 on HEK-CD40 cells (human) (P25942 21-277): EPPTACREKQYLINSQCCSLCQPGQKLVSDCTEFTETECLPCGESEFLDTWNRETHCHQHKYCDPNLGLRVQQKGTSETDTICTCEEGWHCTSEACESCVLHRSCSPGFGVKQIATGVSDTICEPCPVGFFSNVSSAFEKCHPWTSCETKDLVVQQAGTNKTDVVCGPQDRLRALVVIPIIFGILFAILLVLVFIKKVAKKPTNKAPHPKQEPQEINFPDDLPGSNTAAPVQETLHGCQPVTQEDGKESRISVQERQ

In turn, “APX005m, humanized anti-CD40 mAb, IgG1 isotype with S267E mutation (antibody)” showed an EC50, w/o PDL1 (Ramos-Blue NFkB-SEAP reporter, OD630, HEK-control cells added) in assay [1] of 2.6 nM. Further, the EC50, with PDL1 (Ramos-Blue NFkB-SEAP reporter, OD630, HEK-PDL1 cells added) in [1] was 2.67 nM. Moreover, the MFI is 24500 in [2]; 9840 in assay [3]; 2360 in [4]; 4590 in [5]; 23300 in assay [6]; 18200 in [7]. Moreover, the figures for the MFI in assay [8] and in assay [10] were 24700 and 1150, respectively. In assay [9], the EC50 came to 0.28 µg/mL.
The substance “CP-870,893, IgG2 isotype fully human anti-CD40 mAb (antibody)” registered an EC50, w/o PDL1 (Ramos-Blue NFkB-SEAP reporter, OD630, HEK-control cells added) in [1] of 0.15 nM. Moreover, the EC50, with PDL1 (Ramos-Blue NFkB-SEAP reporter, OD630, HEK-PDL1 cells added) in assay [1] worked out at 0.12 nM. Moreover, the MFI in assay [2] is 20900; in assay [3], 3670; in assay [4], 635; in [5], 1530; in [6], 14100; in [7] it was 6790. The MFI in assay [8] came to 23700; in assay [10], 271. Besides, in assay [9], the EC50 was 1.58 µg/mL.
Regarding “Human IgG1 isotype control (Bioxell, Catalog BE 0297) (antibody)”, the MFI is 112 in assay [2]; 32.3 in assay [3]; 40.1 in [4]; 40.2 in [5]; 61.3 in assay [6]; 30.7 in assay [7]. The MFI in [8] was 73.7; in assay [10] it was 28.3.
